Results reported in US20190010196A1 (GOVERNING COUNCIL OF THE UNIVERSITY OF TORONTO, published 2019).
Square brackets hold non-standard residues; d marks the D form. Ends that are not written are not given here. * marks the point of attachment. Biotin = O=C1N[C@H]2[C@H](CS[C@H]2CCCCC(=O)*)N1; Lys(Me2) = CN(C)CCCC[C@H](N)C(=O)O

Target: T1, MBP-53BP1-Tudor protein (residues 1484-1603) (UniProt Q12888 1484-1603)
T1 construct: range 1484-1603; also called MBP-Tudor fusion of 53BP1; not shown: MBP fusion partner
Assay: pulldown competition on MBP-53BP1-Tudor; competitor GST-UbvG08; immunoblot

T1 sequence (Q12888 1484-1603): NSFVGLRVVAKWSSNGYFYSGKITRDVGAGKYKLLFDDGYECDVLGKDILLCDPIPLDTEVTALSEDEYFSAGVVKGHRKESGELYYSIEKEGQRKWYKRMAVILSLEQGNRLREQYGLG

IC50: 100 to 300 µM
B1: biotin-labeled peptide derived from histone H4K20me2 (peptide)
peptide: {Biotin-Mini‑PEG}-YGKGGAKRHR[Lys(Me2)]VLRD
notes: Synthetic peptide (BioBasic Canada Inc.); also called H4K20me2 peptide
